Key:
[1] = target: Hck (UniProt P08631); test: phosphorylation enrichment, bacterial display (enrichment ratio); higher = better substrate or ligand; peptides without Tyr show the background
[2] = system: AncSZ; test: as above
[3] = target: Fes (UniProt P07332); test: as above
[4] = system: Fer (mouse); test: as above
[5] = target: FGFR3 (UniProt P22607); test: as above
[6] = target: EPHB1 (UniProt P54762); test: as above
[7] = system: c-Src; test: as above
[8] = target: Fyn (UniProt P06241); test: as above
Sequence of Fyn (P06241 whole entry, looked up): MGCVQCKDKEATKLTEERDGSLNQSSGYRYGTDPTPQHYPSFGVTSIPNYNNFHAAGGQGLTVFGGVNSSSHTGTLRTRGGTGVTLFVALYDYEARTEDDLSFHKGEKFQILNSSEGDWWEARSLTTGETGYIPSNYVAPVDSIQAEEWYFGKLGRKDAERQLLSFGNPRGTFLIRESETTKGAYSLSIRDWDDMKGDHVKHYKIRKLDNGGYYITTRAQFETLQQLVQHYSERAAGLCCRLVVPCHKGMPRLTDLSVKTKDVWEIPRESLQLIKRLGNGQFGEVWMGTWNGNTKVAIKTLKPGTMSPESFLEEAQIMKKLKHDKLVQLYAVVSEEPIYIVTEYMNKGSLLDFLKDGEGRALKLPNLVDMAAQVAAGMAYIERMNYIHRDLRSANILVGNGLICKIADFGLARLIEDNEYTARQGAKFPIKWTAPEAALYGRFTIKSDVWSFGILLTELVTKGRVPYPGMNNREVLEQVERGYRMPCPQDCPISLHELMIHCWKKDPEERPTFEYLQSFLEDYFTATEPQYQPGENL

[9] = target: EPHB2 (UniProt P29323); test: as above
Sequence of EPHB2 (P29323 whole entry, looked up): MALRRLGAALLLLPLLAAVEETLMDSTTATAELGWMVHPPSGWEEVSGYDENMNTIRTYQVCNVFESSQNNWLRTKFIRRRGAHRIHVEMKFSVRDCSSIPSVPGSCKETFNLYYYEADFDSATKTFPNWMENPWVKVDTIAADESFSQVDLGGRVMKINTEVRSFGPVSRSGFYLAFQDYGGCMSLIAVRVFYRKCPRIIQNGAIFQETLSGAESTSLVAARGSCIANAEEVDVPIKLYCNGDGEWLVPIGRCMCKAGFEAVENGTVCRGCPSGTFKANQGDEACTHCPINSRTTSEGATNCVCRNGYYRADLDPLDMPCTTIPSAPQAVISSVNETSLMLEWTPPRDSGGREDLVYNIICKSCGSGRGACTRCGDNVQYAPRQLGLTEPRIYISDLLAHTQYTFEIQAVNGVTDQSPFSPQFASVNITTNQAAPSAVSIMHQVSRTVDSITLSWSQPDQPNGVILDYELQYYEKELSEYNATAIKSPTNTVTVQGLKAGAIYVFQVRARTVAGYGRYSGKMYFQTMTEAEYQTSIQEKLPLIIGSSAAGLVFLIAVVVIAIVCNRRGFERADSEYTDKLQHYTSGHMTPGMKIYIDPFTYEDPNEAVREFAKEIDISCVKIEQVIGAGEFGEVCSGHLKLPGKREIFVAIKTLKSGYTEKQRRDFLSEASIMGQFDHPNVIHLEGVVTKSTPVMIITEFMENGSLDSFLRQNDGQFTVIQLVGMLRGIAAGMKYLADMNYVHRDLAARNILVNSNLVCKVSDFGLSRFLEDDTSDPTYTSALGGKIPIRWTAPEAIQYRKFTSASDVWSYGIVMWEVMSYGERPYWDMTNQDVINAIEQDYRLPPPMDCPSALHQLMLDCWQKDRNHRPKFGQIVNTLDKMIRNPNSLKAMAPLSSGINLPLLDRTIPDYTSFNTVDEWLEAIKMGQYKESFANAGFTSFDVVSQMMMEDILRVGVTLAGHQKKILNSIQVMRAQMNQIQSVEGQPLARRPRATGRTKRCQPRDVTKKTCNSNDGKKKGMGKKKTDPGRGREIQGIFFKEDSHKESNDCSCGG

[10] = system: c-Abl (mouse); test: as above
[11] = target: FGFR1 (UniProt P11362); test: as above
[12] = target: Jak2 (UniProt O60674); test: as above
[13] = target: MERTK (UniProt Q12866); test: as above
Sequence of MERTK (Q12866 whole entry, looked up): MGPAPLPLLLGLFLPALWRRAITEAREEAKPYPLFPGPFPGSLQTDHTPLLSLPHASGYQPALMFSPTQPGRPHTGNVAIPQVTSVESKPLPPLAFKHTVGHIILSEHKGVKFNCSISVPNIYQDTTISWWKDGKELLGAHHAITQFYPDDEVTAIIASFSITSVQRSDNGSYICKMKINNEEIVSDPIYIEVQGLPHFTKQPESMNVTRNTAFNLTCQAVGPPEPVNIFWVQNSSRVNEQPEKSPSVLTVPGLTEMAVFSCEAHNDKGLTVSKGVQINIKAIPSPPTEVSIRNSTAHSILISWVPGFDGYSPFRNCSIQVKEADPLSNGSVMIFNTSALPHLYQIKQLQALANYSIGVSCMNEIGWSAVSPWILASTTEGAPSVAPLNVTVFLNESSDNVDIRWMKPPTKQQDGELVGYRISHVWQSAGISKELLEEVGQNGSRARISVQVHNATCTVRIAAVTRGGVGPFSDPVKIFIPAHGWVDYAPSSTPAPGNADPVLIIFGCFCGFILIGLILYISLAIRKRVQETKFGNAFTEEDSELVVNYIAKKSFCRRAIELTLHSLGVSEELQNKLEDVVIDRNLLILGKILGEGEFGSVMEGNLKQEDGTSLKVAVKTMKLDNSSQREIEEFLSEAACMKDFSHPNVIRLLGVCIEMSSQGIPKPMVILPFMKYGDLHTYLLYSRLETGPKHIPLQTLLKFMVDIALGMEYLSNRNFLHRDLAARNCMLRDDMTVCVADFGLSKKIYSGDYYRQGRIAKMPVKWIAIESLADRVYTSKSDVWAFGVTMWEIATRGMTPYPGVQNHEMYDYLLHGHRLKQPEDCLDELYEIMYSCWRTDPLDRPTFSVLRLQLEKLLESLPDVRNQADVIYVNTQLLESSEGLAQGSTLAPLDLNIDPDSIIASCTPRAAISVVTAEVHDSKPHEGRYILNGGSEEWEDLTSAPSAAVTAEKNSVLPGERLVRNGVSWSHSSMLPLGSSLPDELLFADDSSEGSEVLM

[14] = target: c-Src SH2; test: SH2 binding enrichment of the phosphorylated peptide, bacterial display (enrichment ratio); higher = better substrate or ligand; peptides without Tyr show the background
[15] = target: SHP2-C SH2; test: as above
[16] = target: Grb2 SH2 (UniProt P62993); test: as above
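Throughout, for SH2 binding enrichment of the phosphorylated peptide, bacterial display: peptide library displayed on the E. coli surface as eCPX fusions, selected cells deep-sequenced, score is each peptide's frequency after selection divided by its frequency in the input.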
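Throughout, for phosphorylation enrichment, bacterial display: 11-residue human phosphosite peptides and single-mutation variants displayed on the E. coli surface, counted by deep sequencing, each peptide's frequency after selection divided by its frequency in the unselected input library; frequency after pTyr selection over input frequency; kinase dosed for 20-30% of maximal phosphorylation in three min.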

Sequence of Hck (P08631 whole entry, looked up): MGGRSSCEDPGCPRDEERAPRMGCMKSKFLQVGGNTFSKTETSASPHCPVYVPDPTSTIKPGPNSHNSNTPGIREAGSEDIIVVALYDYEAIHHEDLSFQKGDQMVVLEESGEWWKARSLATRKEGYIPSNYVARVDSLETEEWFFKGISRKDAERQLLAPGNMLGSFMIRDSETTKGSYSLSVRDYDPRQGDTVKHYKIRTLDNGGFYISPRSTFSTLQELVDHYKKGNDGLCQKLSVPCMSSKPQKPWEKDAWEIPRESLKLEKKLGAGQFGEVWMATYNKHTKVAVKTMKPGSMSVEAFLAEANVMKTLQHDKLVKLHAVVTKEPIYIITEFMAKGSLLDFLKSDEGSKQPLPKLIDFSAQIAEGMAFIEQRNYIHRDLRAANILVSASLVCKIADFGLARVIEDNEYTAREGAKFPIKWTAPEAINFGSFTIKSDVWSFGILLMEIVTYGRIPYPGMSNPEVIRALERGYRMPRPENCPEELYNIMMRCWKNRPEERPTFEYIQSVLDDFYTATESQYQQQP
Sequence of EPHB1 (P54762 whole entry, looked up): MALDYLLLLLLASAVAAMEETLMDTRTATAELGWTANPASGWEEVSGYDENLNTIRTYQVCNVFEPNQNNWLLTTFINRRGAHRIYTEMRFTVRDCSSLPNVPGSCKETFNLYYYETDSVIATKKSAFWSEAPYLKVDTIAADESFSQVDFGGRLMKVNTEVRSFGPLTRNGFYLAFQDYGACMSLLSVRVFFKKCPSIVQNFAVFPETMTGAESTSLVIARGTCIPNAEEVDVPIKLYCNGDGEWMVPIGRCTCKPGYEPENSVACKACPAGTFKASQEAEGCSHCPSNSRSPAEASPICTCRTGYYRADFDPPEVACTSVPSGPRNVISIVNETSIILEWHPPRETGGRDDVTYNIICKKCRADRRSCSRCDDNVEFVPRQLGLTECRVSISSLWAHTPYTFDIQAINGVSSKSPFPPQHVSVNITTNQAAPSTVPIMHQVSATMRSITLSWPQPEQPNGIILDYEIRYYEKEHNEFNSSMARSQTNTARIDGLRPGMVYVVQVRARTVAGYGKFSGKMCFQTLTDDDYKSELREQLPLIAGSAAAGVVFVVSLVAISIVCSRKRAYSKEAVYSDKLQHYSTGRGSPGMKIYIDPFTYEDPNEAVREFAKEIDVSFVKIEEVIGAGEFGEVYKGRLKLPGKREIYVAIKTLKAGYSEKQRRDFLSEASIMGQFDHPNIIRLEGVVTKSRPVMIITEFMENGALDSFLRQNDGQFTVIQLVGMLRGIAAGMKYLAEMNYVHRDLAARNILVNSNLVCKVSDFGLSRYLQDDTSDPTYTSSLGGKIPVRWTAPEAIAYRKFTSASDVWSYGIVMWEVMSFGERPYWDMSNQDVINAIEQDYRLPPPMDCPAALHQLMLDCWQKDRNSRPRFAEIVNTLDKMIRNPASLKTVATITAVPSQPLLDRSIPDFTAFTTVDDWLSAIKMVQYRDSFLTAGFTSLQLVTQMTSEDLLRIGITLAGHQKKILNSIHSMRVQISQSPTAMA
Sequence of Fes (P07332 whole entry, looked up): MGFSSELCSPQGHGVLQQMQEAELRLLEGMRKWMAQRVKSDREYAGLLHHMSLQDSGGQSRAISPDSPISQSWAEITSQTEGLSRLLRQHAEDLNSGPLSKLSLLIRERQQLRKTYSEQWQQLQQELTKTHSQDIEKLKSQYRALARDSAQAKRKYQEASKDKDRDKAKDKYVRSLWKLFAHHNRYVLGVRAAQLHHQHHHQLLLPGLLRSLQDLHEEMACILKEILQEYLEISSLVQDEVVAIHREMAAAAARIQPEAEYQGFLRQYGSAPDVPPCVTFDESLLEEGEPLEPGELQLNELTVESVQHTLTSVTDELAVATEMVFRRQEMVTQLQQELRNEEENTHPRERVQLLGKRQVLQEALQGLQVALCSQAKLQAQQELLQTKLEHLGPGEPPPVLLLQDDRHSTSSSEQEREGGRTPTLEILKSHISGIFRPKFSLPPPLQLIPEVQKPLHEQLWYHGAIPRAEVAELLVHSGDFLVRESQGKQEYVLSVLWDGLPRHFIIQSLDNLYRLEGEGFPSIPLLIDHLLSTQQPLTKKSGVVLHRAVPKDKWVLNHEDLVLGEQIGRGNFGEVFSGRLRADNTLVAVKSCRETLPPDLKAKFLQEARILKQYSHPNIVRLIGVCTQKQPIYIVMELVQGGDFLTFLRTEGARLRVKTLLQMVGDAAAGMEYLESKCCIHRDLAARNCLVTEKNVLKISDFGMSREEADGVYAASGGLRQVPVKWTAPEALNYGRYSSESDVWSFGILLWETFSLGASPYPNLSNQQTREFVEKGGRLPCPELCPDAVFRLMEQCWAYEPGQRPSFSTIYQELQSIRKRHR

Row | SH2 binding enrichment [14] | SH2 binding enrichment [15] | SH2 binding enrichment [16] | Sequence | phosphorylation enrichment [1] | phosphorylation enrichment [2] | phosphorylation enrichment [3] | phosphorylation enrichment [4] | phosphorylation enrichment [5] | phosphorylation enrichment [6] | phosphorylation enrichment [7] | phosphorylation enrichment [8] | phosphorylation enrichment [9] | phosphorylation enrichment [10] | phosphorylation enrichment [11] | phosphorylation enrichment [12] | phosphorylation enrichment [13]
1 | 0.6 | 0.462 | 1.08 | LLDGEYFTLQI [TP53_Y327_P322L] | 2.24 | 5.89 | 5.59 | 1.99 | 8.15 | 1.95 | 7.23 | 3.2 | 1.49 | 3.69 | 10.9 | 8.38 | 1.28
2 | 0.511 | 0.679 | 0.895 | QLATEYVFSDF [PANX1_Y10] | 0.703 | 0.996 | 1.85 | 0.424 | 1.21 | 0.615 | 0.837 | 0.762 | 0.62 | 0.907 | 0.716 | 1.57 | 0.617
3 | 3.02 | 1.32 | 0.987 | DPHECYAKVFD [ALB_Y394] | 0.582 | 1.11 | 1.14 | 0.584 | 0.749 | 0.593 | 0.665 | 0.488 | 0.591 | 0.692 | 0.506 | 0.88 | 0.42
4 | 0.529 | 0.812 | 0.952 | LKGQVYILGGE [ASS1_Y359_R363G] | 0.824 | 1.33 | 1.93 | 1.02 | 1.28 | 1.13 | 1.13 | 0.995 | 1.07 | 1.32 | 1.06 | 1.62 | 1.05
5 | 0.668 | 0.613 | 0.744 | RSFSPYDFQPC [TNS1_Y796_YF] | 0.959 | 1.5 | 1.29 | 0.822 | 0.788 | 0.672 | 5.06 | 5.66 | 0.929 | 1.18 | 0.66 | 1.28 | 1.69
6 | 0.658 | 1.07 | 1.08 | PELINYHQHYS [BTK_Y361_N365Y] | 0.356 | 0.742 | 0.688 | 0.427 | 0.585 | 1.23 | 0.5 | 0.662 | 1.68 | 0.563 | 0.769 | 0.577 | 0.319
7 | 0.388 | 0.625 | 0.796 | SVTCTGSPALN [TP53_Y126_Y126G] | 0.459 | 0.792 | 0.972 | 0.423 | 0.511 | 0.539 | 0.387 | 0.422 | 0.487 | 0.612 | 0.422 | 0.741 | 0.385
8 | 0.504 | 0.924 | 0.849 | TDTAAYEERLR [SPTB_Y474_V478L] | 0.516 | 0.936 | 0.914 | 0.458 | 0.71 | 0.49 | 0.478 | 0.67 | 0.648 | 0.48 | 0.668 | 0.742 | 0.482
